The results in this text go back to article PMC9904299.

This assay addresses mitochondrially targeted human MSRA tagged with tGFP at its C-terminus (targeting sequence of ornithine carbamoyltransferase fused to the N-terminus of MSRA). The experiment in a line: co-immunoprecipitation (anti-FLAG IP, anti-tGFP blot), band intensity quantitated with Odyssey infrared scanner. The note with it: HEK293 cells; 3 separate experiments; parent: est. 100; read off a plot.
Consider FLAG-tagged human Ndufaf2 M85V, for which the percent of parent came out at 90%.
For FLAG-tagged human Ndufaf2 M85V; M160V, the percent of parent was found to be 36%.
As to FLAG-tagged human Ndufaf2 M160V, the percent of parent was 90%.
